Target: GST-LOV2GIV (L) (Avena sativa | not stated)
Test: pull-down

Chain of His-Gαi3 (P08753 whole entry): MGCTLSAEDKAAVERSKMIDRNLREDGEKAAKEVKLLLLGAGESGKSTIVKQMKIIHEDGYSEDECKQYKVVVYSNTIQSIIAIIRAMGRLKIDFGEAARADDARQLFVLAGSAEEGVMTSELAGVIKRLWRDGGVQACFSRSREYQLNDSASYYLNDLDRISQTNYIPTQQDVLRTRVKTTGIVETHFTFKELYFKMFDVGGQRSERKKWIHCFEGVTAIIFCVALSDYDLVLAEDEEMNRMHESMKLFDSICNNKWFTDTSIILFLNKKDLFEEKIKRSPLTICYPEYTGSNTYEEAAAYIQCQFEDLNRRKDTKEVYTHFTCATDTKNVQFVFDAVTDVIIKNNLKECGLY

fold binding, lit over dark conformation of LOV2GIV: 3 fold
Substance: His-Gαi3 (from UniProt P08753 1-354) (natural protein)

— publication doi:10.1101/2020.08.17.253781
